According to IntAct's records for PubMed 31515488:

B1: Tuftelin-interacting protein 11 (Homo sapiens), Q9UBB9 (parent)
chain: MSLSHLYRDGEGRIDDDDDERENFEITDWDLQNEFNPNRQRHWQTKEEATYGVWAERDSDDERPSFGGKRARDYSAPVNFISAGLKKGAAEEAELEDSDDEEKPVKQDDFPKDFGPRKLKTGGNFKPSQKGFAGGTKSFMDFGSWERHTKGIGQKLLQKMGYVPGRGLGKNAQGIINPIEAKQRKGKGAVGAYGSERTTQSMQDFPVVDSEEEAEEEFQKELSQWRKDPSGSKKKPKYSYKTVEELKAKGRISKKLTAPQKELSQVKVIDMTGREQKVYYSYSQISHKHNVPDDGLPLQSQQLPQSGKEAKAPGFALPELEHNLQLLIDLTEQEIIQNDRQLQYERDMVVNLFHELEKMTEVLDHEERVISNLSKVLEMVEECERRMQPDCSNPLTLDECARIFETLQDKYYEEYRMSDRVDLAVAIVYPLMKEYFKEWDPLKDCTYGTEIISKWKSLLENDQLLSHGGQDLSADAFHRLIWEVWMPFVRNIVTQWQPRNCDPMVDFLDSWVHIIPVWILDNILDQLIFPKLQKEVENWNPLTDTVPIHSWIHPWLPLMQARLEPLYSPIRSKLSSALQKWHPSDSSAKLILQPWKDVFTPGSWEAFMVKNIVPKLGMCLGELVINPHQQHMDAFYWVIDWEGMISVSSLVGLLEKHFFPKWLQVLCSWLSNSPNYEEITKWYLGWKSMFSDQVLAHPSVKDKFNEALDIMNRAVSSNVGAYMQPGARENIAYLTHTERRKDFQYEAMQERREAENMAQRGIGVAASSVPMNFKDLIETKAEEHNIVFMPVIGKRHEGKQLYTFGRIVIYIDRGVVFVQGEKTWVPTSLQSLIDMAK
partner: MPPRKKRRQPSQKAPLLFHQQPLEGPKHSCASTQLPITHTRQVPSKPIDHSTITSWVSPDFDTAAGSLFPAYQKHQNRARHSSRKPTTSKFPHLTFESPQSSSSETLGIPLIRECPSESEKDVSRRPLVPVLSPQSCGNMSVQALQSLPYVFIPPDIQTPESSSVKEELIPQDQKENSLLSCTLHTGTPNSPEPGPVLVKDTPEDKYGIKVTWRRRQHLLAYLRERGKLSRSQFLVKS
B2: Proto-oncogene serine/threonine-protein kinase mos (Homo sapiens), P00540 (parent)
chain: MPSPLALRPYLRSEFSPSVDARPCSSPSELPAKLLLGATLPRAPRLPRRLAWCSIDWEQVCLLQRLGAGGFGSVYKATYRGVPVAIKQVNKCTKNRLASRRSFWAELNVARLRHDNIVRVVAASTRTPAGSNSLGTIIMEFGGNVTLHQVIYGAAGHPEGDAGEPHCRTGGQLSLGKCLKYSLDVVNGLLFLHSQSIVHLDLKPANILISEQDVCKISDFGCSEKLEDLLCFQTPSYPLGGTYTHRAPELLKGEGVTPKADIYSFAITLWQMTTKQAPYSGERQHILYAVVAYDLRPSLSAAVFEDSLPGQRLGDVIQRCWRPSAAQRPSARLLLVDLTSLKAELG
partner: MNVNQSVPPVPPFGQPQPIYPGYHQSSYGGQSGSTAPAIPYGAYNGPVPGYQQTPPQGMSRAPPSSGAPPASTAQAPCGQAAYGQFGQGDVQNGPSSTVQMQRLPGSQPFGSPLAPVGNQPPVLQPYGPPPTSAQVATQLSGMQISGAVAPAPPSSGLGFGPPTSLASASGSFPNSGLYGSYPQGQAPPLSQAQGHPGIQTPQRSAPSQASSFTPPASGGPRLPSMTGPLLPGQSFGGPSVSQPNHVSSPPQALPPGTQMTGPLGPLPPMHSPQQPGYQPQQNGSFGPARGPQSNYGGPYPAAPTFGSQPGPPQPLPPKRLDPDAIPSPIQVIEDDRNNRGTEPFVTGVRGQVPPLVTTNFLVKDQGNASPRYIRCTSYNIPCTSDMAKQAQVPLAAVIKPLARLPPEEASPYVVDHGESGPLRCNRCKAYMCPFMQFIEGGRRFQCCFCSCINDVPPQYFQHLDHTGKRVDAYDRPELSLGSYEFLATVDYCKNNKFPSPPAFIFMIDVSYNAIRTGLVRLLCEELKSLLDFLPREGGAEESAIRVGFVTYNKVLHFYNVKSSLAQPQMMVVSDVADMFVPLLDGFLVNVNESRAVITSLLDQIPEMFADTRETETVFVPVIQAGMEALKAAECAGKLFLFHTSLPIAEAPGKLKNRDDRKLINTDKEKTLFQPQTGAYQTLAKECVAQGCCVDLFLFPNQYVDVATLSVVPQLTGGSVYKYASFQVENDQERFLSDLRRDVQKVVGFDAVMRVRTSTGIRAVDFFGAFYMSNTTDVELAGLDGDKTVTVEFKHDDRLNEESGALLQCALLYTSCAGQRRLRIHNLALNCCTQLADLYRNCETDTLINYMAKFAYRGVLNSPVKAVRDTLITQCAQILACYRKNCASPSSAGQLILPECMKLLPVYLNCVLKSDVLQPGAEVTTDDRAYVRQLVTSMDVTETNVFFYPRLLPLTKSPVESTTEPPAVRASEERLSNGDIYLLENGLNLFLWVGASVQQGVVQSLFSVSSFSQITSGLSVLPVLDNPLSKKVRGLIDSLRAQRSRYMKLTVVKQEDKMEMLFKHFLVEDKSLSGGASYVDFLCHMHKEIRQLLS
B3: Hematopoietic prostaglandin D synthase (Homo sapiens), O60760 (parent)
chain: MPNYKLTYFNMRGRAEIIRYIFAYLDIQYEDHRIEQADWPEIKSTLPFGKIPILEVDGLTLHQSLAIARYLTKNTDLAGNTEMEQCHVDAIVDTLDDFMSCFPWAEKKQDVKEQMFNELLTYNAPHLMQDLDTYLGGREWLIGNSVTWADFYWEICSTTLLVFKPDLLDNHPRLVTLRKKVQAIPAVANWIKRRPQTKL
partner: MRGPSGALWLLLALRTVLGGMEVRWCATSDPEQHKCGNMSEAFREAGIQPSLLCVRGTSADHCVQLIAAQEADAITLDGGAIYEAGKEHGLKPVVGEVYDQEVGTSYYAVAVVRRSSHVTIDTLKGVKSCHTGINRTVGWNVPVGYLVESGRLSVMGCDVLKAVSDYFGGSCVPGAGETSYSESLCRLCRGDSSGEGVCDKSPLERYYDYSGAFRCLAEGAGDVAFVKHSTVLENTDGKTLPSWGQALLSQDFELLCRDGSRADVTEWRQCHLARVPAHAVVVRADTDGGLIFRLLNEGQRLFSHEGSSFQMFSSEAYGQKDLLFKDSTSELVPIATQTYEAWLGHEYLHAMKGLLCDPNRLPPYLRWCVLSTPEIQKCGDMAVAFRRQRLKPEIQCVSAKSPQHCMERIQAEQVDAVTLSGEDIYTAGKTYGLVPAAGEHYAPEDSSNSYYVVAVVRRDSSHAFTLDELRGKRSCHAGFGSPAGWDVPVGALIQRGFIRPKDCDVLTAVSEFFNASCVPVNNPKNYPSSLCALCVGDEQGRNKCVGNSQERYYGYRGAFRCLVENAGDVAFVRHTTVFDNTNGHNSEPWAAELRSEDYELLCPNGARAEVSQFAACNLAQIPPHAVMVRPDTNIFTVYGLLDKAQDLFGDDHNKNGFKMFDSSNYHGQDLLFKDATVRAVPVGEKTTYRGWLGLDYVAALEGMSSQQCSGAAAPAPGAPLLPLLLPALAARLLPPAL
B4: Microtubule-associated tumor suppressor candidate 2 (Homo sapiens), Q5JR59-3 (parent)
chain: MGHCCCKPYNCLQCLDKTNESALVKEKELSIELANIRDEVAFHTAKCEKLQKEKEELERRFEDEVKRLGWQQQAELQELEERLQLQFEAEMARLQEEHGDQLLSIRCQHQEQVEDLTASHDAALLEMENNHTVAITILQDDHDHKVQELMSTHELEKKELEENFEKLRLSLQDQVDTLTFQSQSLRDRARRFEEALRKNTEEQLEIALAPYQHLEEDMKSLKQVLEMKNQQIHEQEKKILELEKLAEKNIILEEKIQVLQQQNEDLKARIDQNTVVTRQLSEENANLQEYVEKETQEKKRLSRTNEELLWKLQTGDPTSPIKLSPTSPVYRGSSSGPSSPARVSTTPR
partner: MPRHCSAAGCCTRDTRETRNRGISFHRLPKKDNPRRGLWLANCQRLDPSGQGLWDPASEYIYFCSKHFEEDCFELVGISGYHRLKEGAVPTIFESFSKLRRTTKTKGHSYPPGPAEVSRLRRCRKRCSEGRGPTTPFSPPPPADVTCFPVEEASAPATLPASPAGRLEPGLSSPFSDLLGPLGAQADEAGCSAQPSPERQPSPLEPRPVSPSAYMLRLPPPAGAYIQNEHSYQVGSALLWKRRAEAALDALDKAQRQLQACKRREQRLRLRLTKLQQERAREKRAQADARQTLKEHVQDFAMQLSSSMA

Variants of: B1
Conditions: with rhno1_human RHNO1, Q9BSD3

| Variant | effect of a mutation on the interaction |
| --- | --- |
| S688L | with no effect |
| R8Q | with no effect |

Variants of: B2
Conditions: with sc24c_human SEC24C

| Variant | effect of a mutation on the interaction |
| --- | --- |
| A105S | with no effect |
| A123T | disrupting interaction strength |

Variants of: B3
Conditions: with trfm_human MELTF

| Variant | effect of a mutation on the interaction |
| --- | --- |
| M128T | disrupting interaction strength |

Variants of: B4
Conditions: with thap7_human THAP7, Q9BT49

| Variant | effect of a mutation on the interaction |
| --- | --- |
| A89V | with no effect |
